Tests used:
[1] = target: GST-tagged human FcRn (human; Schistosoma japonicum) (UniProt P55899); assay: ELISA pH 6.0, h9C12 variant captured on AdV5 hexon, GST-hFcRn detected with anti-GST-HRP
[2] = target: Monomeric His-tagged human FcRn (human) (UniProt P55899); assay: SPR Biacore 3000, pH 6.0, KD against IgG1 WT
[3] = target: Monomeric His-tagged human FcRn (human) (UniProt P55899); assay: SPR Biacore 3000, IgG immobilised, monomeric hFcRn injected, pH 6.0, 1:1 Langmuir
[4] = target: Monomeric His-tagged human FcRn (human) (UniProt P55899); assay: SPR Biacore 3000, IgG immobilised, monomeric hFcRn injected, pH 7.4
[5] = target: recombinant human FcRn (SPR of Example 2) (human) (UniProt P55899); assay: SPR Biacore T200, pH 6.0, KD against IgG1-WT
Sequence of recombinant human FcRn (SPR of Example 2) (human) (P55899 24-290 limits assumed, form in doubt): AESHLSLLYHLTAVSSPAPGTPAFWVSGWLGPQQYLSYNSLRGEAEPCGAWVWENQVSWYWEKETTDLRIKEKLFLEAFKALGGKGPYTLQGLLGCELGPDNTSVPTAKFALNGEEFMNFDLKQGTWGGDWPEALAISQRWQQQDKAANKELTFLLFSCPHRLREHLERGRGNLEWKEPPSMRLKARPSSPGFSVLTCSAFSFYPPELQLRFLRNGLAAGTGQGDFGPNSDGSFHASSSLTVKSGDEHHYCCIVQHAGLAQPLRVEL

[6] = target: recombinant human FcRn (SPR of Example 2) (human) (UniProt P55899); assay: SPR Biacore T200, IgG immobilised, hFcRn 1000.0-15.6 nM injected, pH 6.0, 25 C, 1:1 Langmuir

Sequence of GST-tagged human FcRn (human; Schistosoma japonicum) (P55899 24-297, chain 1 of 2): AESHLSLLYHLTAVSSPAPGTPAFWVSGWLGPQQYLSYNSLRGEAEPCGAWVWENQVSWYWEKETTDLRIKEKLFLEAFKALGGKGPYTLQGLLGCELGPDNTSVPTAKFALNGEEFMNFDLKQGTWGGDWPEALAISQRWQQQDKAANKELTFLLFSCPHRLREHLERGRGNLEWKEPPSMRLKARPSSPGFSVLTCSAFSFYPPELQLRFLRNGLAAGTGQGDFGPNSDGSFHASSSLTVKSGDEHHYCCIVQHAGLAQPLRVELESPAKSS
Sequence of GST-tagged human FcRn (human; Schistosoma japonicum) (P61769 21-119, chain 2 of 2, further chain): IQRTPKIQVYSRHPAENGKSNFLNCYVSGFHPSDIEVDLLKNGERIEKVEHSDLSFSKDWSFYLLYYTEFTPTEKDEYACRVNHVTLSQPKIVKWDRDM
Sequence of Monomeric His-tagged human FcRn (human) (P55899 24-290 limits assumed, form in doubt): as the sequence (P55899 24-290 limits assumed, form in doubt) above

Substance	Fold change from WT (ELISA) pH 6.0 [1] [fold]	Fold change from WT [2] [fold]	Kd [3] [nM]	koff [3] [s⁻¹]	further results
h9C12 IgG1-L309K/Q311R/N434W/M428E (antibody)	6	–	–	–	–
h9C12 IgG1-L309R/Q311R/N434W/M428E (antibody)	6	–	–	–	–
h9C12 IgG1-L309S/Q311R/N434W/M428E (antibody)	6	–	–	–	–
h9C12 IgG1-M252S/Q311R/N434W/M428E (antibody)	6	–	–	–	–
h9C12 IgG1-M252Y/S254T/T256E (antibody)	–	8.4	93	0.0078	–
h9C12 IgG1-N434W (antibody)	–	52.9	14.8	0.0032	Kd [4]: 1980 nM
h9C12 IgG1-Q311R (antibody)	–	1.1	687	0.0572	–
h9C12 IgG1-Q311R/N434P/M428E (antibody)	3	–	–	–	Fold change from WT (KD) pH 6.0 [5]: 11.3 fold; Kd [6]: 24.2 nM; koff [6]: 0.0405 s⁻¹
h9C12 IgG1-Q311R/N434W (antibody)	–	35.1	22.3	0.0036	–
h9C12 IgG1-Q311R/N434W/M428D (antibody)	3	–	–	–	Fold change from WT (KD) pH 6.0 [5]: 9.28 fold; Kd [6]: 29.4 nM; koff [6]: 0.0312 s⁻¹
h9C12 IgG1-Q311R/N434W/M428E (antibody)	6	20.3	38.5	0.005	Fold change from WT (KD) pH 6.0 [5]: 29.3 fold; Kd [6]: 9.3 nM; koff [6]: 0.0111 s⁻¹
h9C12 IgG1-Q311R/N434W/M428E/H433K (antibody)	9	–	–	–	–

From patent US20190077883A1
